Results: the supplement of paper PMC9233669
This sample holds only a part of the variants without activity.

Experiments:
[1] = tested on: biotinyl-Phe-oxazolone; experiment: self-aminoacylation, catalytic enhancement (BFO) (fold over background); higher = more active; k-Seq, kA / k0A0; sequences stand for … in GGGAAUGGAUCCACAUCUACGAAUUC…UUCACUGCAGACUUGACGAAGCUG
Outline: (§1)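 Each biotinyl-aminoacyl-oxazolone, at 2–1250 μM, was incubated with mutagenized RNA pools (0.43 μM) carrying a 21-nt variable region. The 50 μL reactions contained HEPES/NaCl/KCl/MgCl2/CaCl2 buffer with 5% acetonitrile at pH 6.9–7.0 and ran for 90 minutes at room temperature. After streptavidin capture, RNA was measured by qPCR in triplicate and by Illumina sequencing, and catalytic enhancement was calculated as median kA over the uncatalyzed rate from a pseudo-first-order fit of per-sequence fraction reacted.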

[2] = tested on: biotinyl-Ile-oxazolone; experiment: self-aminoacylation, catalytic enhancement (BIO) (fold over background); higher = more active; k-Seq, kA / k0A0; sequences stand for … in GGGAAUGGAUCCACAUCUACGAAUUC…UUCACUGCAGACUUGACGAAGCUG
Outline: as §1

[3] = tested on: biotinyl-Met-oxazolone; experiment: self-aminoacylation, catalytic enhancement (BMO) (fold over background); higher = more active; k-Seq, kA / k0A0; sequences stand for … in GGGAAUGGAUCCACAUCUACGAAUUC…UUCACUGCAGACUUGACGAAGCUG
Outline: as §1

[4] = tested on: biotinyl-Val-oxazolone; experiment: self-aminoacylation, catalytic enhancement (BVO) (fold over background); higher = more active; k-Seq, kA / k0A0; sequences stand for … in GGGAAUGGAUCCACAUCUACGAAUUC…UUCACUGCAGACUUGACGAAGCUG
Outline: as §1

[5] = tested on: biotinyl-Leu-oxazolone; experiment: self-aminoacylation, catalytic enhancement (BLO) (fold over background); higher = more active; k-Seq, kA / k0A0; sequences stand for … in GGGAAUGGAUCCACAUCUACGAAUUC…UUCACUGCAGACUUGACGAAGCUG
Outline: as §1

[6] = tested on: biotinyl-Trp-oxazolone; experiment: self-aminoacylation, catalytic enhancement (BWO) (fold over background); higher = more active; k-Seq, kA / k0A0; sequences stand for … in GGGAAUGGAUCCACAUCUACGAAUUC…UUCACUGCAGACUUGACGAAGCUG
Outline: as §1

Sequence	self-aminoacylation [1]	self-aminoacylation [2]	self-aminoacylation [3]	self-aminoacylation [4]	self-aminoacylation [5]	self-aminoacylation [6]
ACACACUUCAAGCAAGCGGUC [Fam1B.1 aminoacylation ribozyme variant]	2.18	1.6	1.33	1.73	1.52	1.74
AUUCCCCUAUGUCAUCGGGUG [Fam2.2 aminoacylation ribozyme variant]	154	12.2	19.2	10.9	23.5	18.4
AUUCUCCUAGAUCAUCGGGUG [Fam2.2 aminoacylation ribozyme variant]	34.7	3.28	4.32	2.68	5.3	4.66
CCACACUUGAAGCAAUUGGUC [Fam1B.1 aminoacylation ribozyme variant]	0.359	0.643	0.63	0.587	0.539	0.386
AGUCACCUAGGUCUUCGGGUG [Fam2.2 aminoacylation ribozyme variant]	56.4	6.51	6.75	6.48	8.46	8.99
AUCCACCUAGGUCAUCGGCUG [Fam2.2 aminoacylation ribozyme variant]	9.73	1.95	1.72	2.29	2.87	2.44
AUUCACCUAGGGCAACGGGUG [Fam2.2 aminoacylation ribozyme variant]	22.8	2.59	2.81	2.5	4.08	2.92
AAGUUUACUAAUACUCGCAAG [Fam3.1 aminoacylation ribozyme variant]	1.55	1.26	1.18	1.18	1.06	1.37
AUUGACCUAGGUCAUCGGGUA [Fam2.2 aminoacylation ribozyme variant]	355	20.4	47.1	16.7	59.5	31.5
AGGUUUGCUAAUAGUCGCAGG [Fam3.1 aminoacylation ribozyme variant]	4.15	1.97	2.21	1.52	1.7	1.99
CUACUUCAAACAACCGGUCUU [Fam1A.1 aminoacylation ribozyme variant]	0.875	1.32	0.686	0.899	0.871	1.05
CCACACUUCCAGCAAUCGGGC [Fam1B.1 aminoacylation ribozyme variant]	1.84	2	1.72	2.32	1.74	2.82
CUUCACCUAAGUCAUCGGGUG [Fam2.2 aminoacylation ribozyme variant]	42.2	4.46	6.58	5.22	8.79	5.5
CUACUUUCAACAAUCGGUCUG [Fam1A.1 aminoacylation ribozyme variant]	14.5	0.99	0.895	1.06	1.09	10.3
AAUACCCUGGGCAUCGAGUGA [Fam2.1 aminoacylation ribozyme variant]	8.76	1.8	3.75	2.29	3.79	3.44
AUUACCUUGGUAAUCGAGUGA [Fam2.1 aminoacylation ribozyme variant]	40	3.52	7.66	3.87	8.08	8.42
AUGACCGUGGUCAUCGAGUGA [Fam2.1 aminoacylation ribozyme variant]	39.7	3.34	6.71	3.22	7.27	7.37
AAGUUUACUAAUAGUCGCGAG [Fam3.1 aminoacylation ribozyme variant]	2.41	1.83	1.59	1.22	1.91	1.54
AAGUUUGGUAAUAGUCGUAAG [Fam3.1 aminoacylation ribozyme variant]	1.44	1.04	0.961	0.916	0.801	1.11
CUAUUUCAAAUAAUCGGUCUG [Fam1A.1 aminoacylation ribozyme variant]	3.5	0.912	0.849	0.816	0.814	2.2
AUUCACCUAGGGCAUCGCGUG [Fam2.2 aminoacylation ribozyme variant]	26.7	3.12	3.5	3.89	2.92	2.95
AAGGUUGCUAAUAGUCGGAAG [Fam3.1 aminoacylation ribozyme variant]	4.52	1.51	1.08	0.973	1.23	3.38
